NK92-mediated ADCC against HEK293A/human TIGIT cells, EC50 data for 1 molecule are collected here from US20220396617A1.

In this assay the target is human TIGIT expressed on HEK293A cells (human) (UniProt Q495A1). Description: cell-based or functional assay.
human TIGIT expressed on HEK293A cells (human), sequence (Q495A1 22-244 limits assumed): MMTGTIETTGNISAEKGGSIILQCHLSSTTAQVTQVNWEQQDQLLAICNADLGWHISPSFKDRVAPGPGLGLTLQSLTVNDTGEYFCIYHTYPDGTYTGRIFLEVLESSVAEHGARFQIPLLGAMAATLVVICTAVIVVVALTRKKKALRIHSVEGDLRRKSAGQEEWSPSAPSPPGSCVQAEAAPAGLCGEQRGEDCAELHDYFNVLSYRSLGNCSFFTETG

B1: Etigilimab (antibody, INN chains, looked up, human IgG1, V domains shown)
VH: QVQLQESGPGLVKPSETLSLTCAVSGYSITSDYAWNWIRQPPGKGLEWIGYISYSGSTSYNPSLRSRVTISRDTSKNQFFLKLSSVTAADTAVYYCARRQVGLGFAYWGQGTLVTVSS
VL: DIQMTQSPSSLSASVGDRVTITCKASQDVSTAVAWYQQKPGKAPKLLIYSASYRYTGVPSRFSGSGSGTDFTFTISSLQPEDIATYYCQQHYSTPWTFGQGTKVEIK
B1: the NK92-mediated ADCC against HEK293A/human TIGIT cells, EC50 was found to be 23.6 pM.
